The target of test [1] is T1, PKCιKD-2P (primed human PKC-iota kinase domain) (Homo sapiens, UniProt P41743, C595S).
T1 construct: encoding residues 248–596 (GenBank: NM_002740.5); GST (followed by a 3C protease site) (N, cleaved yes); made in house; host or cells: Hi5 insect cells, baculovirus, co-infected with a PDK-1 virus
T1 sequence (P41743 248-596 C595S): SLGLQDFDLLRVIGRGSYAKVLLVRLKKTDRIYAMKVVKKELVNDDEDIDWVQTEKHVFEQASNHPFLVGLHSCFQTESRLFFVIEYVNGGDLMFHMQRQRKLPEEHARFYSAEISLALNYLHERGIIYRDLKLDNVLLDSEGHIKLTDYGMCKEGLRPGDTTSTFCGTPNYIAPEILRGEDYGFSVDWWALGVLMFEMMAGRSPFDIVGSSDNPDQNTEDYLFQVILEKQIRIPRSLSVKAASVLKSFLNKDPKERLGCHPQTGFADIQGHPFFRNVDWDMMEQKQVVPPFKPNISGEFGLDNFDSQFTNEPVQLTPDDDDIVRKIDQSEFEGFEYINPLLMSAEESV
Kind of test: In vitro kinase assay (ADP Quest), inhibition of phosphorylation of a model substrate peptide. It counts as biochemical. The settings on record: Figures 1C, S5C. The method, then:
The ADP Quest kit (DiscoveRx) was used to determine the kcat app and KM app values for ATP against the PKCιKD-1P and PKCιKD-2P using a series of synthetic peptide substrates as described by [Kjaer et al. (2013)]. The reactions were measured every 2 min for 30 min in a 384-well plate using a Safire^2 plate reader (Tecan). The kinetic constants were determined by fitting the data to the Michaelis-Menten equation. Data are represented as mean ± SEM. Fluorescence anisotropy assays were performed to determine the KD for each peptide labeled with a fluorescein tag following standard protocols using a Safire^2 plate reader (Tecan). The anisotropy values were normalized and the KD was determined using non-linear regression. […]
The ADP Quest kit (DiscoveRx) was used to determine the kcat app and Km app values for ATP against the PKCι KD-1P and PKCι KD-2P. The assay uses a coupled reaction to convert ADP to a product that has a fluorescence excitation at 530 nm and emission at 590 nm. […]
peptide ([…]) related to the Nishikawa and co-workers consensus were also used in the study (Nishikawa et al., 1997). […] The reactions were measured every two minutes for 30 minutes in a 384-well plate using a Safire 2 plate reader (Tecan). The kinetic constants were determined by fitting the data to Michaelis–Menten equation using the graphics program Prism (GraphPad Prism, version 5.0d, GraphPad Software). […]

The target of test [2] is T1, PKCιKD-2P (primed human PKC-iota kinase domain). Kind of test: In vitro kinase assay (ADP Quest), peptide as substrate, Michaelis-Menten kinetics. The settings on record: in vitro kinase assay. It counts as biochemical. The method, then: The ADP Quest kit (DiscoveRx) was used to determine the kcat app and KM app values for ATP against the PKCιKD-1P and PKCιKD-2P using a series of synthetic peptide substrates as described by [Kjaer et al. (2013)]. The reactions were measured every 2 min for 30 min in a 384-well plate using a Safire^2 plate reader (Tecan). The kinetic constants were determined by fitting the data to the Michaelis-Menten equation. Data are represented as mean ± SEM. Fluorescence anisotropy assays were performed to determine the KD for each peptide labeled with a fluorescein tag following standard protocols using a Safire^2 plate reader (Tecan). The anisotropy values were normalized and the KD was determined using non-linear regression. All experiments were performed in triplicate and for at least three independent protein preparations.
The ADP Quest kit (DiscoveRx) was used to determine the kcat app and Km app values for ATP against the PKCι KD-1P and PKCι KD-2P. The assay uses a coupled reaction to convert ADP to a product that has a fluorescence excitation at 530 nm and emission at 590 nm. Several synthetic peptide substrates were used including a model peptide […]
([…]) derived from a PKCε pseudo-substrate sequence with an alanine-serine change. We found this peptide to be an efficient substrate peptide for aPKC isozymes. Peptides from human Par3CR3 (residues 816-835) and F-X-R short […]
peptide ([…]) related to the Nishikawa and co-workers consensus were also used in the study (Nishikawa et al., 1997). For the kcat app and Km app reactions, the ATP concentration ranged from 0-200 µM, while the synthetic peptide substrates were kept constant at 200 µM to avoid product inhibition. The reactions were measured every two minutes for 30 minutes in a 384-well plate using a Safire 2 plate reader (Tecan). The kinetic constants were determined by fitting the data to Michaelis–Menten equation using the graphics program Prism (GraphPad Prism, version 5.0d, GraphPad Software). […]

For another test, the system named is Par6-PKCι-Cdc42 complex. Kind of test: In vitro activity of activated Par complex (data not shown). It counts as biochemical.
In test [3] the target is PKCι kinase domain, 248-596 (UniProt P41743). As to the kind of experiment: fluorescence anisotropy, fluorescein-labelled peptide. The settings on record: reference: unphosphorylated Par3CR3 peptide; sites S827. For orientation: In fluorescence polarisation assays a small probe gives low polarisation when free and higher when bound to something large.
The target in test [4] is T2, human PKC-iota kinase domain, primed active form (PKCιKD-2P) (human, UniProt P41743 248-596, phosphothreonine at 412 and 564 (pT412, pT564)).
T2 sequence (looked up): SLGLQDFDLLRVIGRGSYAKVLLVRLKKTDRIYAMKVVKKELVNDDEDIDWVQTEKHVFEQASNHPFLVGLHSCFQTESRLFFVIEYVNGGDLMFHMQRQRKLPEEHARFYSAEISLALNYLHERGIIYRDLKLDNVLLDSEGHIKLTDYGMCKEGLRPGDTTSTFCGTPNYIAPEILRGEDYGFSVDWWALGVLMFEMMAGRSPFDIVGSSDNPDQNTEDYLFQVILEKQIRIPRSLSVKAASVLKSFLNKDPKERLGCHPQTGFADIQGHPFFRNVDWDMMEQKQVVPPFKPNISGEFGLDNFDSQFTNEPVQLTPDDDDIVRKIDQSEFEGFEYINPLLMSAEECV
Kind of test: cell-based or functional assay.

Test [5] concerns the target T3, human PKC-iota kinase domain, primed active form (PKCιKD-2P) (human, UniProt P41743 248-596, phosphothreonine at 412 and 564 (pT412, pT564)).
T3 chain: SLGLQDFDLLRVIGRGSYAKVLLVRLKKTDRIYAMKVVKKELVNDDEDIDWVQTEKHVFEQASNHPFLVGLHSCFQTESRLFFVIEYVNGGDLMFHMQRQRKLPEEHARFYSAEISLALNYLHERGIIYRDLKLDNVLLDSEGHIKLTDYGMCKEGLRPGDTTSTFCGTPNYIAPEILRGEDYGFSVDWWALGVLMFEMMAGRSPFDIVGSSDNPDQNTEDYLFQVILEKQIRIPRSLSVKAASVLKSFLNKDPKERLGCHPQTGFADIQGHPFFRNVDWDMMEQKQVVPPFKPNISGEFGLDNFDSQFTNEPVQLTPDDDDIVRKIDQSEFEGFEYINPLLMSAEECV
Kind of test: FP.

Test [6] concerns the target T4, human PKC-iota kinase domain, partially primed low-activity form (PKCιKD-1P) (human, UniProt P41743 248-596, partially primed: one of the two priming sites pT412 and pT564 phosphorylated).
T4 chain: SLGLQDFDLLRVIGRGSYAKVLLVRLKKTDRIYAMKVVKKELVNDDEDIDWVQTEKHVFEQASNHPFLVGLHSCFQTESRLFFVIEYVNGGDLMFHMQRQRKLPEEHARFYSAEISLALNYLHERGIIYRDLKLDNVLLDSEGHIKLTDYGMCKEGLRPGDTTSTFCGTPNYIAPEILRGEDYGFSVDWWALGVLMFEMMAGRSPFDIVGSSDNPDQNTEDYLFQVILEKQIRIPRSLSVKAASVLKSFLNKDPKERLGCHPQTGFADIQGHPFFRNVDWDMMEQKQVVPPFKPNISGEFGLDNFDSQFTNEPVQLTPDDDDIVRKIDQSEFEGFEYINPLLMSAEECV
As to the kind of experiment: FP.

In test [7] the target is T3, human PKC-iota kinase domain, primed …. Kind of test: FP.
Test [8] concerns the target T2, human PKC-iota kinase domain, primed …. As to the kind of experiment: fluorescence polarisation; fluorescence anisotropy of fluorescein-labelled peptide with PKCι kinase domain; Safire2 plate reader; anisotropy normalised, KD by non-linear regression; triplicate, at least three independent protein preparations. The settings on record: both partners purified.

Residues, ends and D or L forms follow the SMILES beside them. No end group written: not given here.

Regarding “Kibra-derived peptide: Kibra-derived peptide (residues 919–978) with F-X-R motif anchor and K-R inhibitory motif (LRGSTIIRSKTFSPGPQSQYVCRLNRSDSDSSTLSKKPPFVRNSLERRSVRMKRPSSVKS)”, the “inhibition of PKCι catalytic activity in vitro (in words)” value in [1] is “potently inhibit”.

As to “FKRQGSVRRR [F-X-Rshort peptide, artificial PKCι substrate resembling the aPKC consensus motif of Nishikawa et al]”, the “phosphorylation as substrate by PKCι in vitro (in words)” value in test [2] is reported as “efficient PKCι substrate”. The “inhibition of PKCι catalytic activity in vitro (in words)” value in test [1] was “does not inhibit”.

`CSCC[C@H](NC(=O)[C@H](CO)NC(=O)[C@H](CCC(N)=O)NC(=O)[C@H](CCCNC(=N)N)NC(=O)CNC(=O)[C@H](Cc1ccccc1)NC(=O)CNC(=O)[C@H](CCC(=O)O)NC(=O)[C@H](CCCNC(=N)N)NC(=O)[C@H](CCC(N)=O)NC(=O)[C@H](Cc1ccccc1)NC(=O)[C@H](C)NC(=O)[C@@H](N)CC(C)C)C(=O)N[C@@H](CO)C(=O)N[C@@H](CCC(=O)O)C(=O)N[C@@H](CCCCN)C(=O)N[C@@H](CCCNC(=N)N)C(=O)N[C@H](C(=O)N[C@@H](CCCCN)C(=O)O)[C@@H](C)O` [Par3CR3] (H-LAFQREGFGRQSMSEKRTK-OH; N-terminus and C-terminus assumed): in the test on Par6-PKCι-Cdc42 complex, the “inhibition of activated Par complex (in words)” value is given as “potently inhibited”.

Turning to “Par3 CR3, 816-834 (from UniProt Q8TEW0) phospho-S827 Par3CR3 peptide”, the fold change result in test [3] was “weaker”.

B1: Par3CR3 A-A-T mutant peptide (K-R-T to A-A-T, site 3 inhibitory arm) (peptide)
peptide: LAFQREGFGRQSMSEAATK
modifications: also: fluorescein label (position not given here)
Consider B1, for which the “fold increase of the apparent kcat of Par3CR3 phosphorylation by PKCιKD-2P, in vitro kinase assay” value in [4] is 18 fold. Besides, in test [5], binding was characterised by a dissociation constant (Kd) of 424 µM.

B2: human Par3 conserved region 3 peptide, residues 816-834 (Par3CR3) (peptide, UniProt Q8TEW0 816-834, looked up)
peptide: LAFQREGFGRQSMSEKRTK
modifications: also: fluorescein label (position not given here)
notes: also called wild-type Par3CR3; source: synthetic peptide
Consider B2, for which the “apparent IC50 of the block of phosphorylation of a model substrate peptide by PKCιKD-2P, in vitro kinase assay” value in [4] is 0.45 µM. Further, the Kd (usually a measure of binding affinity in units of concentration) in [6] is 53.6 µM; in [7] it was 0.41 µM; in [5], 0.73 µM; in test [8] it was 0.47 µM.

B3: Par3CR3 S827A mutant peptide (peptide, UniProt Q8TEW0 816-834, looked up)
peptide: LAFQREGFGRQAMSEKRTK
modifications: also: fluorescein label (position not given here)
notes: source: synthetic peptide
On to B3, for which the results for the Kd in test [5] and in test [8] were 0.69 µM and 0.97 µM, respectively.
